Holding throughout (assay type): biochemical
Common to all, as to design: key to Activity of mutant relative to wild-type Gaussia luciferase without the signal peptide: ratio of mutant luminescence intensity to wild-type Gaussia luciferase

The nature of assay [1]: Luminescence activity assay of purified Gaussia luciferase mutants on coelenterazine derivative ZS2. The note with it: Substrate ZS2 (Table 16). In a few lines: (§1)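 Readout: luminescence intensity, as ratio to signal-peptide-free wild-type enzyme. Enzyme 1 μg/mL, substrate 100 μM stock, 10 μL + 90 μL; buffer 50 mM Tris-HCl pH 8.0, 100 mM NaCl, 0.1% Tween-20.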
The nature of assay [2]: Luminescence activity assay of purified Gaussia luciferase mutants on fluoro-coelenterazine. The note with it: Substrate f-CTZ (Table 16). In a few lines:
as §1

The nature of assay [3]: Luminescence activity assay of purified Gaussia luciferase mutants on coelenterazine. The note with it: Substrate CTZ (Table 16). In outline:
as §1

Where a chain is given by its changes, count along the chain named. Names may count otherwise.

B1: E102K S103T A104G E110G V138D I172: Gaussia luciferase mutant (protein)
chain: MGVKVLFALICIAVAEAKPTENNEDFNIVAVASNFATTDLDADRGKLPGKKLPLEVLKEMEANARKAGCTRGCLICLSHIKCTPKMKKFIPGRCHTYEGDKKTGQGGIGGAIVDIPEIPGFKDLEPMEQFIAQVDLCDDCTTGCLKGLANVQCSDLLKKWLPQRCATFASKIQGQVDKIKGAGGD
Turning to B1, the “Activity of mutant relative to wild-type Gaussia luciferase without the signal peptide” value in assay [1] is reported as 0.550; in assay [2], 2.719; in assay [3] it was 0.622.

B2: S103I A104G E110G L124M V138D: Gaussia luciferase mutant (protein)
chain: B1 chain with K102E, T103I, L124M
modifications: SIGNAL (1)..(17)
notes: Gaussia luciferase mutant
On to B2, for which the entries for the “Activity of mutant relative to wild-type Gaussia luciferase without the signal peptide” value in assay [1], in assay [2] and in assay [3] were 1.337, 1.701 and 1.165, respectively.

B3: F26C N27D A30D A32V S33R A36T: Gaussia luciferase mutant (protein)
chain: MGVKVLFALICIAVAEAKPTENNEDCDIVDVVRNFTTTDLDADRGKLPGKKLPLEVLKEMEANARKAGCTRGCLICLSHIKCTPKMKKFIPGRCHTYEGDKESAQGGIGEAIVDIPEIPGFKDLEPMEQFIAQVDLCVDCTTGCLKGLANVQCSDLLKKWLPQRCATFASKIQGQVDKIKGAGGD
modifications: SIGNAL (1)..(17)
notes: Gaussia luciferase mutant
Turning to B3, the “Activity of mutant relative to wild-type Gaussia luciferase without the signal peptide” value in assay [1] came to 0.166; in assay [2] it was 0.130; in assay [3] it was 0.126.

B4: F26G N27D V29L A30V V31I A32G S33D A36W T37S: Gaussia luciferase mutant (protein)
chain: B3 chain with C26G, V29L, D30V, V31I, V32G, R33D, T36W, T37S
modifications: SIGNAL (1)..(17)
notes: Gaussia luciferase mutant
Turning to B4, the “Activity of mutant relative to wild-type Gaussia luciferase without the signal peptide” value worked out at 0.027 in assay [1], 0.040 in assay [2] and 0.038 in assay [3].

B5: F26I V29A A30D A32V S33K T37E L40A: Gaussia luciferase mutant (protein)
chain: B3 chain with C26I, D27N, V29A, R33K, T36A, T37E, L40A
modifications: SIGNAL (1)..(17)
notes: Gaussia luciferase mutant
For the molecule B5, the “Activity of mutant relative to wild-type Gaussia luciferase without the signal peptide” value was determined as 1.231 in assay [1], 0.583 in assay [2] and 1.470 in assay [3].

B6: F26G N27Y V29C A30V V31L S33G A36R T37A L40A: Gaussia luciferase mutant (protein)
chain: B3 chain with C26G, D27Y, V29C, D30V, V31L, V32A, R33G, T36R, T37A, L40A
modifications: SIGNAL (1)..(17)
notes: Gaussia luciferase mutant
For B6, the figures for the “Activity of mutant relative to wild-type Gaussia luciferase without the signal peptide” value in assay [1], in assay [2] and in assay [3] were 0.080, 0.104 and 0.088, respectively.

B7: F26L V29A V31I A32D S33R A36N T37E LA0P: Gaussia luciferase mutant (protein)
chain: B3 chain with C26L, D27N, V29A, D30A, V31I, V32D, T36N, T37E
For the molecule B7, the figures for the “Activity of mutant relative to wild-type Gaussia luciferase without the signal peptide” value in assay [1], in assay [2] and in assay [3] were 0.385, 0.402 and 0.406, respectively.

B8: F26N V29S A30D S33D A36T T37A L40G: Gaussia luciferase mutant (protein)
chain: B3 chain with C26N, D27N, V29S, V32A, R33D, T37A, L40G
modifications: SIGNAL (1)..(17)
notes: Gaussia luciferase mutant
In the case of B8, the “Activity of mutant relative to wild-type Gaussia luciferase without the signal peptide” value in assay [1] was found to be 0.106; in assay [2] it was 0.121; in assay [3], 0.098.

B9: F26L N27H V29C V31I S33V A36Q T37S L40G: Gaussia luciferase mutant (protein)
chain: B3 chain with C26L, D27H, V29C, D30A, V31I, V32A, R33V, T36Q, T37S, L40G
modifications: SIGNAL (1)..(17)
notes: Gaussia luciferase mutant
As for B9, the “Activity of mutant relative to wild-type Gaussia luciferase without the signal peptide” value in assay [1] is reported as 0.067; in assay [2], 0.095; in assay [3], 0.066.

B10: F26G N27Y A30G V31L A32G S33L A36Y T37V L40E: Gaussia luciferase mutant (protein)
chain: B3 chain with C26G, D27Y, D30G, V31L, V32G, R33L, T36Y, T37V, L40E
modifications: SIGNAL (1)..(17)
notes: Gaussia luciferase mutant
B10: the “Activity of mutant relative to wild-type Gaussia luciferase without the signal peptide” value in assay [1] is 0.027; in assay [2], 0.025; in assay [3], 0.031.

B11: F26C N27D V29L A32V A36I T37A L40I: Gaussia luciferase mutant (protein)
chain: B3 chain with V29L, D30A, R33S, T36I, T37A, L40I
modifications: SIGNAL (1)..(17)
notes: Gaussia luciferase mutant
For B11, the results for the “Activity of mutant relative to wild-type Gaussia luciferase without the signal peptide” value in assay [1], in assay [2] and in assay [3] were 0.166, 0.141 and 0.203, respectively.

B12: F26I N27D V29A A30D V31I S33K A36N T37K L40P: Gaussia luciferase mutant (protein)
chain: B3 chain with C26I, V29A, V31I, V32A, R33K, T36N, T37K, L40P
modifications: SIGNAL (1)..(17)
notes: Gaussia luciferase mutant
As for B12, the “Activity of mutant relative to wild-type Gaussia luciferase without the signal peptide” value in assay [1] was 0.026; in assay [2], 0.080; in assay [3], 0.016.

B13: F26C N27D A30V V31L A32G S33I A36V T37M L40G: Gaussia luciferase mutant (protein)
chain: B3 chain with D30V, V31L, V32G, R33I, T36V, T37M, L40G
modifications: SIGNAL (1)..(17)
notes: Gaussia luciferase mutant
Consider B13, for which the “Activity of mutant relative to wild-type Gaussia luciferase without the signal peptide” value in assay [1] is 0.086; in assay [2] it was 0.065; in assay [3] it was 0.054.

B14: Q152R Q163S T167S S170D G174K Q175E K178N A182M: Gaussia luciferase mutant (protein)
chain: MGVKVLFALICIAVAEAKPTENNEDFNIVAVASNFATTDLDADRGKLPGKKLPLEVLKEMEANARKAGCTRGCLICLSHIKCTPKMKKFIPGRCHTYEGDKESAQGGIGEAIVDIPEIPGFKDLEPMEQFIAQVDLCVDCTTGCLKGLANVRCSDLLKKWLPSRCASFADKIQKEVDNIKGMGGD
modifications: SIGNAL (1)..(17)
notes: Gaussia luciferase mutant
In the case of B14, the figures for the “Activity of mutant relative to wild-type Gaussia luciferase without the signal peptide” value in assay [1], in assay [2] and in assay [3] were 3.139, 1.020 and 4.609, respectively.

B15: Q152R T167G G174S Q175E K178N A182Y G183A: Gaussia luciferase mutant (protein)
chain: B14 chain with S163Q, S167G, D170S, K174S, M182Y, G183A
modifications: SIGNAL (1)..(17)
notes: Gaussia luciferase mutant
Take B15: the figures for the “Activity of mutant relative to wild-type Gaussia luciferase without the signal peptide” value in assay [1], in assay [2] and in assay [3] were 0.481, 0.404 and 0.703, respectively.

B16: Q163T T167S S170V G174N K178N A182Y G183A: Gaussia luciferase mutant (protein)
chain: B14 chain with R152Q, S163T, D170V, K174N, E175Q, M182Y, G183A
modifications: SIGNAL (1)..(17)
notes: Gaussia luciferase mutant
As for B16, the “Activity of mutant relative to wild-type Gaussia luciferase without the signal peptide” value is 0.138 in assay [1], 0.135 in assay [2] and 0.170 in assay [3].

For the origin of these results see patent publication US20250066745A1, “MUTANTS AND USE THEREOF” (BGI SHENZHEN, priority 2021, published 2025).
